Measurements from patent US20120093813A1 (Pfizer, published 2012).
“And” between values parts separate entries of the source, which are not always exact repeats. Equal entries are not always repeated.

What was measured:
[1] = biological target: Notch1 of HPB-ALL cells (human, UniProt P46531 19-2555); test: cell-based or functional assay
[2] = biological target: T1, human Notch1-NRRHD (human, UniProt P46531 19-43; P46531 1446-1733); test: ELISA on coated conditioned medium
T1 construct: domain: Notch1-NRRHD (nucleotide 1-129);domain: Notch1-NRRHD (nucleotide 4338-5202); If counted from the start codon they are about residues 1-43 and 1447-1734 (my conversion); Used as conditioned medium; also called huN1-NRRHD; human Notch1 antigen
T1 sequence (looked up): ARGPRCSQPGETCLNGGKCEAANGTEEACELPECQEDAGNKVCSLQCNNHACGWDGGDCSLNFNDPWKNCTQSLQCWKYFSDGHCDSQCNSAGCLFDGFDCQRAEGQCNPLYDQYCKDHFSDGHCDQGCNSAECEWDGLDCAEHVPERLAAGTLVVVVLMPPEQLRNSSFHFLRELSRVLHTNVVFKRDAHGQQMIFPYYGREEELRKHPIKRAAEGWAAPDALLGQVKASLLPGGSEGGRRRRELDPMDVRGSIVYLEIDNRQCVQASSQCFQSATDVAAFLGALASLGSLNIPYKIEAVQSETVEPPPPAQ
Source text: (§1) We further made domain-swap chimeric Notch1-NRRHD expression constructs using the human Notch1-NRRHD sequence (Nucleotide 1-129 and 4338-5202, NCBI Accession # NM_{—}017617) as frame work, systematically exchanged the human Lin-A, Lin-B or HD-C domains with the corresponding mouse domains.

[3] = biological target: T2, murine Notch1-NRRHD (mouse, UniProt Q01705 19-33; Q01705 1443-1723); test: ELISA on coated conditioned medium
T2 construct: domain: Notch1-NRRHD (nucleotide 1-99);domain: Notch1-NRRHD (nucleotide 4327 to 5169); Nucleotide limits only; if counted from the start codon they are residues 1-33 and 1443-1723 (my conversion); Used as conditioned medium; also called MuN1-NRRHD; mouse Notch1
T2 sequence (looked up): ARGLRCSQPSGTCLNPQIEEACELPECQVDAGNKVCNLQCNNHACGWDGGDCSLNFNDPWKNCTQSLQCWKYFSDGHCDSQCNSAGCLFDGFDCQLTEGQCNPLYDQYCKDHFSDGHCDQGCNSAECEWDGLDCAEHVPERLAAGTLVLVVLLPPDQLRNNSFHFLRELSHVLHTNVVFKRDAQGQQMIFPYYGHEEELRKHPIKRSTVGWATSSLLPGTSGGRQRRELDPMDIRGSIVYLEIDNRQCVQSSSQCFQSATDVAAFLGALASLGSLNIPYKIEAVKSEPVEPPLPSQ
Source text: as §1

[4] = biological target: T3, Notch1 chimeric antigen, Lin-B domain swapped with murine sequence; test: ELISA on coated conditioned medium
T3 construct: also called Mu/Lin-B
Source text: as §1

[5] = biological target: T4, Notch1 chimeric antigen, HD-C domain swapped with murine sequence; test: ELISA on coated conditioned medium
T4 construct: also called Mu/HD-C
Source text: as §1

[6] = biological target: T5, N1-NRR-TM(-)/Fc fusion protein (human); test: SPR, Biacore 3000, N1-NRR-TM(-)Fc captured on Protein A, mAb injected
T5 construct: Secreted from 293-F cells, purified on protein G; also called Notch1-NRR-TM(-)/Fc; N1-NRR-TM(-)Fc protein; not shown: Human Fc of the Fc-fusion vector, fused C-terminal of the immunogen, plus any junction residues
T5 chain: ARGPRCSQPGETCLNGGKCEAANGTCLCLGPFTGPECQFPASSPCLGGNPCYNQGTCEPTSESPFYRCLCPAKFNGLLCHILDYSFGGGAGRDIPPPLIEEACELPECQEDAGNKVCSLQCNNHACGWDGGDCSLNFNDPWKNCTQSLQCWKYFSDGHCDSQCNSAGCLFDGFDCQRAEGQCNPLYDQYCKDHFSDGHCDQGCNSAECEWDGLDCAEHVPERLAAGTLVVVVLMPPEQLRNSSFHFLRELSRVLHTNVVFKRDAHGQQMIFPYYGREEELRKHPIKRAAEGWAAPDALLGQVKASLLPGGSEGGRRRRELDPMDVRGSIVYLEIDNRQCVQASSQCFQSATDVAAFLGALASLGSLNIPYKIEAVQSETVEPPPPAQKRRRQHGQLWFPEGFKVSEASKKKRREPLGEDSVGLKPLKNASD
Method: Protein A was amine-coupled at saturating levels onto the chip using a standard N-hydroxysuccinimide/ethyldimethylaminopropyl carbodiimide (NHS/EDC) chemistry. N1-NRR-TM(−)Fc protein (described in Example 1) was captured to the chip surface by Protein A in all three flow cells at 40, 13, 4 ug/ml. […] Dissociation was monitored for 20 minutes. The chip was regenerated after the last injection of each titration with two 30 second pulses of 100 mM phosphoric acid. Buffer cycles provided blanks for double-referencing the data, which were then fit globally to a simple binding model using Biaevaluation software v.4.1. Affinities were deduced from the quotient of the kinetic rate constants (KD=koff/kₒₙ).

[7] = biological target: T6, Notch1 chimeric antigen, Lin-A domain swapped with corresponding Notch2 domain; test: ELISA, conditioned medium of chimeric antigen coated, 300 ng mAb per well
T6 construct: Used as conditioned medium of transfected 293-F cells
Method: (§2) For understanding the mechanism of action by Notch1-antagonist mAb, binding epitopes of Notch1-antagonist mAbs were analyzed by domain swap and ELISA binding assay. The Notch1-NRR-TM(−)/Fc protein was divided into six domains: EGF (including EGF35-36), Lin12-A (or Lin-A), Lin-B, Lin-C, heterodimerization domain-N (or HD-N) and HD-C (FIG. 5). Each of the domains were swapped for that corresponding to human Notch2 by PCR synthesis in a series of chimeric Notch1-NRR-TM(−)/Fc expression constructs. The domain-swap plasmids were transfected in Freestyle™ 293-F cells (Invitrogen, Inc., Calsbad, Calif.) using Freestyle™ Max Reagent (Invitrogen) as described above in Example 1. After being cultured for three days, the conditioned media was subjected to Western blot analysis and an ELISA binding assay by Notch1 mAbs.
(§3) In ELISA assay, the 100 microliters of the conditioned medium from the above antigen plasmids-transfected cell culture were loaded in each well of the 96-well plate, and plates were incubated at room temperature for 4 hours or 4° C. for overnight. The condition medium was then removed from the coated plates. For primary antibody binding, 300 ng of each mAb (Table 3) in 100 microliters of PBS was added to the coated well. The rest of the ELISA procedure is the same as described in Example 2.

[8] = biological target: T7, Notch1 chimeric antigen, Lin-C domain swapped with corresponding Notch2 domain; test: as above
T7 construct: Used as conditioned medium of transfected 293-F cells
Method: as §2, §3

[9] = biological target: T8, Notch1 chimeric antigen, HD-N domain swapped with corresponding Notch2 domain; test: as above
T8 construct: Used as conditioned medium of transfected 293-F cells
Method: as §2, §3

[10] = biological target: T9, Notch1 chimeric antigen, HD-C domain swapped with corresponding Notch2 domain; test: as above
T9 construct: Used as conditioned medium of transfected 293-F cells
Method: as §2, §3

[11] = biological target: T10, Notch1 chimeric antigen, EGF domain swapped with corresponding Notch2 domain; test: as above
T10 construct: Used as conditioned medium of transfected 293-F cells
Method: as §2, §3

[12] = biological target: T2, murine Notch1-NRRHD; test: heading printed under Table 3; it introduces the following ELISA experiment with human and murine Notch1-NRRHD
Source text: as §1

B1: mouse monoclonal antibody N248A (antibody, IgG1, V domains shown)
VH: QVQLQQSGAELMKPGASVKISCKATGYTFSNYWMEWVKQRPGHGLEWIGEILPGRGRTNYNENFKGKATFTADTSSNTVYMQLNSLTSEDSAVYYCARFHSSAYYYTMDYWGQRTSVTVSS
VL: QAVVTQESALTTSPGETVTLTCRSSTGAVTTSNYANWVQEKPDHLFTGLIGGTNNRAPGIPARFSGSLIGDKAALTITGAQTEDEAIYFCALWYSNHWVFGGGTKLTVL
notes: treated as one antibody; also called mAb N248A; N248A1
IC50 of cell growth inhibition, HPB-ALL cells, 7 days [1]: ~0.78 µg/ml and ~5.2 nM
ELISA reading [2]: 3.13
ELISA reading [3]: 0.17
ELISA reading [4]: 3.37
ELISA reading [5]: 3.17
Kd [6]: < 0.33 nM
koff [6]: < 0.00017 s⁻¹
ELISA reading [7]: 0.05
ELISA reading [8]: 3.48
ELISA reading [9]: 3.52
ELISA reading [10]: 0.04
ELISA reading [11]: 3.51
binding result [12]: no binding
